Laboratory results as given in US20050074814A1, “Relaxin3-GPCR135 complexes and their production and use” (priority 2003, published 2005).
One block for each compound: values may come before it.

Tests used:
[1] = system: CHO-K1 cells; test: Intracellular cAMP accumulation assay in un-transfected CHO-K1 control cells; format: cell-based
Description: CHO-K1 cells stably expressing human GPCR135 (GPCR135) and un-transfected CHO-K1 cells (Control) were used for cAMP accumulation assays. Cells were treated with different stimulants as indicated. cAMP accumulated in the cells was extracted by HCl and the concentration of cAMP was measured by a ELISA kit (NEN) using ^125I-labeled cAMP and Flash plates.
(§1) CHO-K1 cells stably expressing human GPCR135 were established by transfection of GPCR135 expressing plasmid into CHO-K1 (ATCC# CCL-61) cells and culturing the transfected cells under selection of G418 (400 mg/L). The receptor expressing cells were seeded in 96-well plates at a cell density of 30,000 cells/well. Twenty-four hours later, cell culture medium was replaced with DMEM-F12 plus 2 mM IBMX (sigma). A different test compound for cAMP stimulation was added to each well. The reactions were incubated at room temperature for 20 min. Twenty micro-liters of 0.5 N HCl was added to each well to stop the reaction and extract the accumulated cAMP. The cAMP concentration was measured using a cAMP ELISA kit (NEN).

[2] = system: human GPCR135; test: Intracellular cAMP accumulation assay in CHO-K1 cells stably expressing human GPCR135; format: cell-based; details: in the presence of GPCR135
Description: as §1

[3] = biological target: T1, mouse GPCR135 (Mus musculus, UniProt Q8BGE9); test: Radioligand binding assay on COS-7 cells transfected with GPCR135; details: mouse GPCR135 in COS-7 cells; presence or absence of 1 μM unlabeled competitor
T1 construct: Mouse GPCR135 coding region was PCR amplified from mouse genomic DNA; expressed in transfected cells; host or cells: COS-7 (transient)
T1 sequence (Q8BGE9 1-472): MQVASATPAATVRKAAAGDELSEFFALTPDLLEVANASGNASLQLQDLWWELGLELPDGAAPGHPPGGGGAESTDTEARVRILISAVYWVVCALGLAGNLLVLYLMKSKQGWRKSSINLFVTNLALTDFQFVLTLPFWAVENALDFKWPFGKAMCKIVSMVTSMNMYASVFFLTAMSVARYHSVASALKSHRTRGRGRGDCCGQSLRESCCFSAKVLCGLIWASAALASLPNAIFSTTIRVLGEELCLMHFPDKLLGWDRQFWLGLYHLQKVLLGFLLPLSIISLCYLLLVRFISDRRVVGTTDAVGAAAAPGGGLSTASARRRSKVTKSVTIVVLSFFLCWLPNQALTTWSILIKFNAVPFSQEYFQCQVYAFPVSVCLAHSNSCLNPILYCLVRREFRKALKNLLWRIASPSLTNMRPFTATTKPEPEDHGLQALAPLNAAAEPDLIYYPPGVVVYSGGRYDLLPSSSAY
Description: (§2) COS-7 cells in 6-well tissue culture plates were transfected by GPCR135 expressing plasmid using LipofectAmine. Two days after transfection, cells were washed with binding buffer: DMEM plus 50 mM Hepes, pH 7.2 and 1% BSA. ^125I-label human relaxin3 was added to each well in 1 ml of binding buffer at presence or absence 1 μM of unlabeled relaxin as competitor. The binding assays were carried out at room temperature for one hour and the unbound ligand was washed away by ice-cold PBS. The bound 125I-relaxin3 was counted in a gamma counter.

[4] = system: rat GPCR135; test: as above; details: rat GPCR135 in COS-7 cells; presence or absence of 1 μM unlabeled competitor
rat GPCR135, sequence (as listed by the source): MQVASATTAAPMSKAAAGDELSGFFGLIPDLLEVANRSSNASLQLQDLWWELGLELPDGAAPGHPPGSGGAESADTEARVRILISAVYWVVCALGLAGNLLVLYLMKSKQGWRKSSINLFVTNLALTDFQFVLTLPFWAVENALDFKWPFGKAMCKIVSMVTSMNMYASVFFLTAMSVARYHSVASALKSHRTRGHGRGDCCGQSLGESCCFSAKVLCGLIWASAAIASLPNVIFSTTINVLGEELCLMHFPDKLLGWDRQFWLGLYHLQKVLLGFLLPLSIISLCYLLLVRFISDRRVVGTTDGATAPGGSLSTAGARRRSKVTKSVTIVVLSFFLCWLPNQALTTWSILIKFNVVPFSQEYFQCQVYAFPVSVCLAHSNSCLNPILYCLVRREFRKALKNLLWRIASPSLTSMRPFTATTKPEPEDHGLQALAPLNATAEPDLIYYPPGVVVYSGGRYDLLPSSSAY
Description: as §2

[5] = biological target: T2, GPCR135 (Homo sapiens, UniProt Q9NSD7); test: as above; set-up: primers complementary to the putative translation start and stop sites of the GPCR135 open reading frame; expressed in transfected cells; details: human GPCR135 in COS-7 cells; presence or absence of 1 μM unlabeled competitor
T2 sequence (Q9NSD7 1-469): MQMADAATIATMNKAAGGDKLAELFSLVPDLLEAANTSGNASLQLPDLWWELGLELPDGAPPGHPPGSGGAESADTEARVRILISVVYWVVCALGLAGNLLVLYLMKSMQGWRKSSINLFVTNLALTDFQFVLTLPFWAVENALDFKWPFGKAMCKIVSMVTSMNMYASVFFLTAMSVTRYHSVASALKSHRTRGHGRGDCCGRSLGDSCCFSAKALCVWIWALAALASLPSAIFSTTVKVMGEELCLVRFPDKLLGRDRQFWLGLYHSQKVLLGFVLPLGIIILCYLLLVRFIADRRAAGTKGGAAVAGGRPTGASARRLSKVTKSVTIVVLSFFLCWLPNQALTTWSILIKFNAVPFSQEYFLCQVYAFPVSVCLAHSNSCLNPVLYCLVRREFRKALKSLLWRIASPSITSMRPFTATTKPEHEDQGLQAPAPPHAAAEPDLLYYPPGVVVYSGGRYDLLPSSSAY
Description: as §2

[6] = biological target: T2, GPCR135; set-up: host or cells: Cos-1 (transient); details: transient expression of GPCR135 in Cos-1 cells; cited from earlier work
[7] = biological target: T2, GPCR135; test: Ca2+ mobilization assay (FLIPR) in HEK293 cells co-expressing GPCR135 and Gqi5; format: cell-based; set-up: primers complementary to the putative translation start and stop sites of the GPCR135 open reading frame; expressed in transfected cells
Description: Using LipofectAmine, human embryonic kidney (HEK) 293 cells were co-transfected with a plasmid expressing GPCR135 receptor and a plasmid expressing Gqi5, a mutant G-protein that translates the activation of GPCR135 into an increased intracellular Ca 2+, or increased Ca^2+ mobilization (Conklin et al., 1993, Nature 363: 274-276). Two days after transfection, cells were detached with PBS plus 10 mM EDTA, pH 8.0. The detached cells were washed with DMEM-F12 medium (without phenol red, Invitrogen) and seeded in black poly-D lysine coated 96-well plates at a cell density of 50,000 cell/well. Calcium dye, Fluo-3 (AM) (TEFLABS, Austin, Tex.) was loaded into the cells and ligand stimulated calcium mobilization was monitored using FLIPR (Molecular Device).
HEK293 cells, untransfected (293 Control) or transfected by Gqi5 (293/Gqi5) alone or human GPCR135 (GPCR135) alone, or co-transfected by human GPCR135 and Gqi5 (GPCR135/Gqi5), were used for Ca^2+ mobilization assays under stimulation of relaxin3 as the ligand. Ligand-stimulated intracellular mobilization was monitored using FLIPR.

[8] = biological target: T2, GPCR135; test: Intracellular cAMP accumulation assay in CHO-K1 cells stably expressing human GPCR135; format: cell-based; set-up: primers complementary to the putative translation start and stop sites of the GPCR135 open reading frame; expressed in transfected cells; host or cells: CHO-K1 (transient, pCIneo vector), membranes; details: CHO-K1 cells expressing human GPCR135
Description: as §1

[9] = biological target: T3, LGR7 (Homo sapiens, UniProt Q9HBX9); details: cited from earlier work
T3 sequence (Q9HBX9 1-757): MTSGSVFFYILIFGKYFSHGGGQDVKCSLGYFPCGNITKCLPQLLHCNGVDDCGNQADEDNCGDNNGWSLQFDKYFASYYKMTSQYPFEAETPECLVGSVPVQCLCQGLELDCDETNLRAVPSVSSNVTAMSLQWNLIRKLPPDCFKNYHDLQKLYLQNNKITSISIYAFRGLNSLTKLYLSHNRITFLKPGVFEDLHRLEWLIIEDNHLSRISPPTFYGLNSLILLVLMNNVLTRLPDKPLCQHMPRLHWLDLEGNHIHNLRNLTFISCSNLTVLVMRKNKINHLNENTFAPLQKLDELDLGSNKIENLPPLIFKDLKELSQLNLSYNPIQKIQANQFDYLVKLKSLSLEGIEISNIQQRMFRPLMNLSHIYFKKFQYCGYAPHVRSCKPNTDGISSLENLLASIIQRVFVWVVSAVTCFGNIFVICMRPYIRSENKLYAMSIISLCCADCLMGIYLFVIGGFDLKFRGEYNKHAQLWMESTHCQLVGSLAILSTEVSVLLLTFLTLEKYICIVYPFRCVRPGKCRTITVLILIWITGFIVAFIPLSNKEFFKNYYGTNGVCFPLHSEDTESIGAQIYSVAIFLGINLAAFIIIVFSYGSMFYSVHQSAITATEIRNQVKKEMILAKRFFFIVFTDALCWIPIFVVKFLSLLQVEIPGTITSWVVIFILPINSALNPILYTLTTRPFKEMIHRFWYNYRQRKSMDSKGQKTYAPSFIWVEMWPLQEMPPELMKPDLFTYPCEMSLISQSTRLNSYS

[10] = biological target: T2, GPCR135; test: GTPγS binding assay with GPCR135 expressing cell membranes; format: biochemical; set-up: primers complementary to the putative translation start and stop sites of the GPCR135 open reading frame; expressed in transfected cells; host or cells: CHO-K1 (transient, pCIneo vector), membranes; details: isolated membranes of CHO-K1 cells transfected with GPCR135; 35S-GTPγS
Description: Frozen rat brains (5 g) were homogenized at −30° C. in 40 ml ethanol/HCl (ethanol to 0.8M HCl ratio at 3:1). The homogenate was extracted at 4° C. for 2 hr and then centrifuged at 4° C. at 20,000 g for 30 min. The supernatant was loaded onto a 2 ml SP-Sephadex C-25 column (Amersham), washed with 1 M acetic acid and eluted with 2 M pyridine and 1 M acetic acid. The eluted fraction was loaded onto a 6 ml C-18 BondElut column, washed with 0.1% TFA and eluted with 60% acetonitrile and 0.1% TFA. The eluted peptides were lyophilized, reconstituted in water, and tested for GPCR135 ligand activity using GTPγS binding assay as described in Example 5.
GPCR135 expression vector was transfected into CHO-K1 cells using Lipofectamine (Invitrogen). Two days after transfection, the transfected cells were harvested and homogenized in GTPγS binding buffer: 50 mM Tris-HCl, pH 7.4, 10 mM MgCl2, 1 mM EDTA pH 8.0, and 100 mM NaCl. Protease inhibitors were added to the buffer at concentrations of 1 mM PMSF, 10 μg/ml of pepstain A, 10 μg/ml of leupeptin. Cell membranes were isolated by centrifugation at 20,000 g for 30 min. […] Microscint-40 (Packard) was added to each well and the plate was counted on a top counter (TopCount NTX, Packard).

Compound: C=C[C@@]1(C)CC(=O)[C@]2(O)[C@@]3(C)[C@@H](O)CCC(C)(C)[C@@H]3[C@H](O)[C@H](OC(C)=O)[C@@]2(C)O1 [forskalin]
- intracellular concentration of cAMP ([1]; in the absence of GPCR135): increases the intracellular concentration of cAMP
- intracellular concentration of cAMP [2]: increases the intracellular concentration of cAMP

- specific binding to GPCR135 [3]: specifically binds
- specific binding to GPCR135 [5]: specifically binds
Compound: ^125I-relaxin 3: 125I-labeled human relaxin3 used as radioligand
- specific binding to GPCR135 [4]: specifically binds

Compound: angiotensin II (DRVYIHPF; Angiotensin-2; UniProt P01019 25-32, looked up)
- binding sites on GPCR135 expressing cells [6]: did not produce any binding sites

Compound: relaxin3: recombinant human relaxin3, mature two-chain (A and B) peptide linked by disulfide bridges, purified from transfected COS-7 medium
- ligand-stimulated intracellular Ca2+ mobilization [7]: stimulated Ca^2+ mobilization
- forskalin-stimulated cAMP accumulation ([1]; control cells where GPCR135 is absent): not in control cells
- forskalin-stimulated cAMP accumulation [8]: inhibits forskalin-stimulated cAMP accumulation
- activation of LGR7 [9]: activates LGR7
- stimulation of GTPγS binding in GPCR135 expressing cell membrane [10]: potently stimulated GTPγS binding
